Ccl19 promoter-driven luciferase activity in HEK293T cells co-transfected with TAZ4SA and p52 (p52 alone: 7.5-fold) data for one substance are collected here from PMC6981200.

The target in the experiment is streptavidin-binding peptide-tagged constitutively active form of TAZ (SBP-TAZ4SA) (human) (UniProt Q9GZV5).
Chain of UniProt Q9GZV5 (Q9GZV5 whole entry): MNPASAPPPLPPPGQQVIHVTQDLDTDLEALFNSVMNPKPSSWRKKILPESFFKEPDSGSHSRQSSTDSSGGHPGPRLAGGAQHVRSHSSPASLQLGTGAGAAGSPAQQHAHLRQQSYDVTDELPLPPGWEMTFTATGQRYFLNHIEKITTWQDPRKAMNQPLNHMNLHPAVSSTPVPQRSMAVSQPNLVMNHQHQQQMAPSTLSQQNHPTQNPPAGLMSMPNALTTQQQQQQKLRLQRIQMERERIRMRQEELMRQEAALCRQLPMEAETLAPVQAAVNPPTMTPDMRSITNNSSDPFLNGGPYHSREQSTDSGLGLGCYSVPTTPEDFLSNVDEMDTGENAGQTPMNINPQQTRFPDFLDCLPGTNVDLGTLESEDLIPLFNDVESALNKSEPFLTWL

Take “Flag-p52 (from UniProt Q9WTK5 1-454) (natural protein)”: the Ccl19 promoter-driven luciferase activity in HEK293T cells co-transfected with TAZ4SA and p52 (p52 alone: 7.5-fold) amounted to 13.5 fold.
